Experimental data as given in patent US20250011363A1, “OPTIMIZED SHORTENED PEPTIDE THAT BINDS TO ACETYLCHOLINE RECEPTOR, AND USE THEREOF” (SKINMED CO., LTD., priority 2021, published 2025).

target: acetylcholine receptor; experiment: SPR, peptide at 10 uM, AchR immobilized

Binder	Binding affinity
KKAANK [6mer-1-666]	18 RU
KRDSPK [6mer-1-667]	32 RU
RKATVK [6mer-1-668]	17 RU
KRNMAK [6mer-1-669]	23 RU
KKDWNR [6mer-1-670]	11 RU
KKNMVR [6mer-1-671]	11 RU
RKMEIR [6mer-1-672]	17 RU
RRAMPK [6mer-1-673]	16 RU
RKHPKK [6mer-1-674]	32 RU
KKIWKR [6mer-1-675]	21 RU
KRCPWR [6mer-1-676]	16 RU
KKCCFR [6mer-1-677]	22 RU
KRMAAK [6mer-1-678]	25 RU
KKAEER [6mer-1-679]	30 RU
KKDPPR [6mer-1-680]	27 RU
KKEWKK [6mer-1-681]	32 RU
KKKDIR [6mer-1-682]	30 RU

target: acetylcholine receptor; experiment: SPR, peptide at 10 uM on immobilised AchR

Binder	Binding affinity (RU)
KRSIYR [6mer-1-55]	133 RU
RRGIQR [6mer-1-56]	137 RU
RKQYYK [6mer-1-57]	139 RU
RKSVTR [6mer-1-58]	126 RU
KRLQCK [6mer-1-59]	145 RU
RKSIQK [6mer-1-60]	139 RU
KRSYCK [6mer-1-61]	121 RU
RRWFTK [6mer-1-62]	133 RU
KKWVSR [6mer-1-63]	148 RU
RKQFTK [6mer-1-64]	154 RU
KKSRRR [6mer-1-65]	121 RU
KKSISR [6mer-1-66]	147 RU
RRSYTR [6mer-1-67]	135 RU
RKLQLK [6mer-1-68]	153 RU
